# In patent US20230192860A1 (Bristol-Myers Squibb, published 2023):
# Target: T1, monovalent hVISTA-ECD (amino acids 32-193 of SEQ ID NO: 1 with a 7xHis tail) (human, UniProt Q9H7M9 33-193)
# T1 construct: analyte of the SPR assays; also called huVISTA-His; human VISTA-ECD
# Test: SPR 37C, Ab on Protein A, hVISTA-ECD 50-5 nM, pH 6.0, average
# Description: Binding of several preparations of each of the ‘029 progeny clones and of the parent ‘029 antibodies, formatted as IgG1.3 antibodies, to human VISTA at pH 6.0 and 7.4 was measured by Surface plasmon resonance (SPR). SPR analysis was performed to measure koff and KD binding affinity measurements for VISTA Abs at acidic and neutral pHs using a Biacore® T100 instrument (GE Healthcare). […] Antibodies were diluted to 25 nM in PBST pH 7.4, and were captured across active biosensor flow cells at 5 ul/min for 60 seconds. A concentration series of 50 - 5 nM monovalent hVISTA-ECD (SEQ ID NO: 325) was prepared in pH 7.4 and 6.0 running buffers, and was injected over the captured antibodies at 40 ul/min to measure association and dissociation. Two 15 second injections of 10 mM glycine pH 1.5 were used to regenerate the Protein A capture surface between assay cycles. Rate constants ka (kₒₙ) and kd (koff) were derived from reference flow cell and 0 nM blank-subtracted sensorgrams, and were fit to a 1:1 binding model in Biacore® T200 Evaluation Software v.2.0. The affinity constant, KD was calculated as the ratio of rate constants koff/kₒₙ for each VISTA antibody.
# T1 sequence (Q9H7M9 other isoform, or with tags, fused parts or gaps limits assumed): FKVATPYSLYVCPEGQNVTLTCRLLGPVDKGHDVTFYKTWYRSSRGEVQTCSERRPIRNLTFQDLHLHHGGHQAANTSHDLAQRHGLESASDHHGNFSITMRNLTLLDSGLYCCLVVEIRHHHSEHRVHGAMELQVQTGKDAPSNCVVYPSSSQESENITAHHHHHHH
Binder,Kd,koff,kon
"P1-068757 (antibody, human IgG1, kappa, V domains shown, IgG1.3; also called P1-068757-9) VH: EVQLVESGGGLVQPGKSLRLSCAASGFTLEDEAMHWVRQAPGKGLEWVSGINWNSEEIGYADSVKGRFTISRDNAKNSLYLQMNSLRTEDTALYYCAKVPGYSGGWIDAEDDWGQGTMVTVSS VL: not shown",19 nM,0.017 s⁻¹,890000 M⁻¹ s⁻¹
"P1-068769 (antibody, human IgG1, kappa, V domains shown, IgG1.3) VH: EVQLVESGGGLVQPGKSLRLSCAASGFTLEDEAMHWVRQAPGKGLEWVSGINWNSDHIGYADSVKGRFTISRDNAKNSLYLQMNSLRTEDTALYYCAKVPGYSGGWIDAEDDWGQGTMVTVSS VL: not shown",55 nM,0.04 s⁻¹,810000 M⁻¹ s⁻¹
"P1-068759 (antibody, human IgG1, kappa, V domains shown, IgG1.3; also called P1-068759-9) VH: EVQLVESGGGLVQPGKSLRLSCAASGFTLEDEAMHWVRQAPGKGLEWVSGIDWNSENIGYADSVKGRFTISRDNAKNSLYLQMNSLRTEDTALYYCAKVPGYSGGWIDAEDDWGQGTMVTVSS VL: not shown",60 nM,0.08 s⁻¹,1.3e+06 M⁻¹ s⁻¹
"P1-068771 (antibody, human IgG1, kappa, V domains shown, IgG1.3; also called P1-068771-10) VH: EVQLVESGGGLVQPGKSLRLSCAASGFTLEDEAMHWVRQAPGKGLEWVSGINWNSHEIGYADSVKGRFTISRDNAKNSLYLQMNSLRTEDTALYYCAKVPGYSGGWIDAEDDWGQGTMVTVSS VL: not shown",25 nM,0.018 s⁻¹,760000 M⁻¹ s⁻¹
"P1-068765 (antibody, human IgG1, kappa, V domains shown, IgG1.3; also called P1-068765-10) VH: EVQLVESGGGLVQPGKSLRLSCAASGFTDEDYAMHWVRQAPGKGLEWVSGINWNSEEIGYADSVKGRFTISRDNAKNSLYLQMNSLRTEDTALYYCAKVPGYSGGWIDAEDDWGQGTMVTVSS VL: not shown",19 nM,0.007 s⁻¹,370000 M⁻¹ s⁻¹
"P1-068773 (antibody, human IgG1, kappa, V domains shown, IgG1.3) VH: EVQLVESGGGLVQPGKSLRLSCAASGFTLEDYAMHWVRQAPGKGLEWVSGIDWNSDNIGYADSVKGRFTISRDNAKNSLYLQMNSLRTEDTALYYCAKVPGYSGGWIDAEDDWGQGTMVTVSS VL: not shown",9.4 nM,0.0029 s⁻¹,300000 M⁻¹ s⁻¹
"P1-068736 (antibody, human IgG1, kappa, V domains shown, IgG1.3) VH: QVQLVESGGGVVQPGRSLRLSCAASGFTFSEYAMHWVRQAPGKGLEWVAIDWYDGSNKDYADSVKGRFTISRDNSKNTLYLQMNSLRAEDTAVYYCARDSGFYDSYYFDDWGQGTLVTVSS VL: EIVLTQSPATLSLSPGERATLSCRASQSVSSSYLAWYQQKPGQAPRLLIYDASNRATGIPARFSGSGSGTDFTLTISSLEPEDFATYYCQQYNSYPYTFGQGTKLEIKR",1.1 nM,0.0095 s⁻¹,8.4e+06 M⁻¹ s⁻¹
"P1-068752 (antibody, human IgG1, kappa, V domains shown, IgG1.3) VH: QVQLVESGGGVVQPGRSLRLSCAASGFTFSSYAMHWVRQAPGKGLEWVAEIWYDGSNKDYADSVKGRFTISRDNSKNTLYLQMNSLRAEDTAVYYCARDSGFYDSYYFDEWGQGTLVTVSS VL: EIVLTQSPATLSLSPGERATLSCRASQSVSSSYLAWYQQKPGQAPRLLIYDASNRATGIPARFSGSGSGTDFTLTISSLEPEDFATYYCQQYNSYPYTFGQGTKLEIKR",5.6 nM,0.034 s⁻¹,6.1e+06 M⁻¹ s⁻¹
"P1-068744 (antibody, human IgG1, kappa, V domains shown, IgG1.3; also called P1-068744-7) VH: QVQLVESGGGVVQPGRSLRLSCAASGFTFSEYAMHWVRQAPGKGLEWVAHIWYDGSNKYEADSVKGRFTISRDNSKNTLYLQMNSLRAEDTAVYYCARDSGFYESYYFDEWGQGTLVTVSS VL: EIVLTQSPATLSLSPGERATLSCRASQSVSSSYLAWYQQKPGQAPRLLIYDASNRATGIPARFSGSGSGTDFTLTISSLEPEDFATYYCQQYNSYPYTFGQGTKLEIKR",1.3 nM,0.0018 s⁻¹,1.3e+06 M⁻¹ s⁻¹

# Target: T2, hVISTA-ECD 6-His tag (human, UniProt Q9H7M9 33-193)
# T2 construct: also called monovalent hVISTA-ECD; human VISTA
# T2 sequence (Q9H7M9 other isoform, or with tags, fused parts or gaps limits assumed): as the sequence (Q9H7M9 other isoform, or with tags, fused parts or gaps limits assumed) above
# Test: SPR, Ab on Protein A, hVISTA analyte, pH 6.0
Binder,Kd,koff,kon
"P1-068759 (antibody, human IgG1, kappa, V domains shown, also called P1-068759-9; 029 progeny) VH: EVQLVESGGGLVQPGKSLRLSCAASGFTLEDEAMHWVRQAPGKGLEWVSGIDWNSENIGYADSVKGRFTISRDNAKNSLYLQMNSLRTEDTALYYCAKVPGYSGGWIDAEDDWGQGTMVTVSS VL: not shown",96 nM,0.058 s⁻¹,600000 M⁻¹ s⁻¹
